Experiments:
AncSZ = test: phosphorylation enrichment, bacterial display (enrichment ratio); higher = better substrate or ligand; peptides without Tyr show the background
EPHB1 = EPHB1 (UniProt P54762); test: as above
EPHB2 = EPHB2 (UniProt P29323); test: as above
FGFR1 = FGFR1 (UniProt P11362); test: as above
FGFR3 = FGFR3 (UniProt P22607); test: as above
Fer (mouse) = test: as above
Fes = Fes (UniProt P07332); test: as above
Fyn = Fyn (UniProt P06241); test: as above
Hck = Hck (UniProt P08631); test: as above
Jak2 = Jak2 (UniProt O60674); test: as above
MERTK = MERTK (UniProt Q12866); test: as above
c-Abl (mouse) = test: as above
c-Src = test: as above
Grb2 SH2 = Grb2 SH2 (UniProt P62993); test: SH2 binding enrichment of the phosphorylated peptide, bacterial display (enrichment ratio); higher = better substrate or ligand; peptides without Tyr show the background
SHP2-C SH2 = test: as above
c-Src SH2 = test: as above
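For SH2 binding enrichment of the phosphorylated peptide, bacterial display in this document: peptide library displayed on the E. coli surface as eCPX fusions, selected cells deep-sequenced, score is each peptide's frequency after selection divided by its frequency in the input.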
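For phosphorylation enrichment, bacterial display in this document: 11-residue human phosphosite peptides and single-mutation variants displayed on the E. coli surface, counted by deep sequencing, each peptide's frequency after selection divided by its frequency in the unselected input library; frequency after pTyr selection over input frequency; kinase dosed for 20-30% of maximal phosphorylation in three min.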

EPHB2, sequence (P29323 whole entry, looked up): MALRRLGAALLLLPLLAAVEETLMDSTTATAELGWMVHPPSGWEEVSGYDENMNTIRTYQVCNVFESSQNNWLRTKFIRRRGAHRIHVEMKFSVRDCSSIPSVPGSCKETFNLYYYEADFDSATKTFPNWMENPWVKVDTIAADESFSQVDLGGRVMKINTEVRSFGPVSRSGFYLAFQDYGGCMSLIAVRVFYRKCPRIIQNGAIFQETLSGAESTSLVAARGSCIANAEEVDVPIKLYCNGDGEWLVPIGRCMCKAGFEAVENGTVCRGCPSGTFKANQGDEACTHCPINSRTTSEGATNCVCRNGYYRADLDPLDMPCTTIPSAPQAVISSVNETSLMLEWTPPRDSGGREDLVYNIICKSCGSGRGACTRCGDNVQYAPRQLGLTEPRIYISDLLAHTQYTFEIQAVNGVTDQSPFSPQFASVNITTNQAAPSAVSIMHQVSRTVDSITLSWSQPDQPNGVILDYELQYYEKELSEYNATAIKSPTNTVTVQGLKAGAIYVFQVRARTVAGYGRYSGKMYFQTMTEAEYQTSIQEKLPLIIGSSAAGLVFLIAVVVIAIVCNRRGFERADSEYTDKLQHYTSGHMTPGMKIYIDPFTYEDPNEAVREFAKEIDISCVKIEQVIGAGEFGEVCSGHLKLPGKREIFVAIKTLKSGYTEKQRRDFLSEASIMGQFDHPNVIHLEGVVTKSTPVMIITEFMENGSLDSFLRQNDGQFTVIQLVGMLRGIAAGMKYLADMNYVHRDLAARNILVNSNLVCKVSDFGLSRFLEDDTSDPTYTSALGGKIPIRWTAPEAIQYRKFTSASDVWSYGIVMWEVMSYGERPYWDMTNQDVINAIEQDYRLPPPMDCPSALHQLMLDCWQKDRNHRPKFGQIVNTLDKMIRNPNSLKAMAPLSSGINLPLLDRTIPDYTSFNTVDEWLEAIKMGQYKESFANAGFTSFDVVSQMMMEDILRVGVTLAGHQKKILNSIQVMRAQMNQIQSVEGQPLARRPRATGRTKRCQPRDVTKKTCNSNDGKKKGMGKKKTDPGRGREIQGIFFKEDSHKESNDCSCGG
Jak2, sequence (O60674 whole entry, looked up): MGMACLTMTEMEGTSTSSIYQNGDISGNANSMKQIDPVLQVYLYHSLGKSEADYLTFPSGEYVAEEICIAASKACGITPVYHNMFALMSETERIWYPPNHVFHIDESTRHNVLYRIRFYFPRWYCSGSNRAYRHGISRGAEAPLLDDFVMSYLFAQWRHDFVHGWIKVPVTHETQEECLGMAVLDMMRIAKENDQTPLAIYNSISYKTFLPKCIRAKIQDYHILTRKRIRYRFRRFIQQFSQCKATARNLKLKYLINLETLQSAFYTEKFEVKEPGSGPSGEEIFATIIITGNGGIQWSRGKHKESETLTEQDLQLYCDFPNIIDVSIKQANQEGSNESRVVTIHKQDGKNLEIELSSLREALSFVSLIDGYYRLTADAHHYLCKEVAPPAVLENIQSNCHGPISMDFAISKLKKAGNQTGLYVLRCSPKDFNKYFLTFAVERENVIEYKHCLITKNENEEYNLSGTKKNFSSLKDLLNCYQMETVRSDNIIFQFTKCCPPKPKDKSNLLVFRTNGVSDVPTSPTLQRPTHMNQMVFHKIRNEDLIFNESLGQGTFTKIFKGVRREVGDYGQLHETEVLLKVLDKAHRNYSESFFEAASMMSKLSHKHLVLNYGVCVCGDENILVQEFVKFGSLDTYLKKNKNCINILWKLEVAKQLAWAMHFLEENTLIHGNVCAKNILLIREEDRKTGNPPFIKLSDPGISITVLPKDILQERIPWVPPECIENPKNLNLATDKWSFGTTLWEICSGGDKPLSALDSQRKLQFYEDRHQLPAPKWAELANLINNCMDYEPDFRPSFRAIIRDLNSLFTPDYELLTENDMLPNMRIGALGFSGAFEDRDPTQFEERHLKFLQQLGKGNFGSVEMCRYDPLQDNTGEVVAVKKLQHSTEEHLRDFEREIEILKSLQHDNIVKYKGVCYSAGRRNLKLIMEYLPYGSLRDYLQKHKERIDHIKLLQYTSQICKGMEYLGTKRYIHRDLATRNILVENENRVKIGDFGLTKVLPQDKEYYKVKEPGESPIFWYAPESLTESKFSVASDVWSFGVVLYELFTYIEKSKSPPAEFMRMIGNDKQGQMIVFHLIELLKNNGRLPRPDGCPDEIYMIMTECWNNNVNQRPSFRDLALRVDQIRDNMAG
EPHB1, sequence (P54762 whole entry, looked up): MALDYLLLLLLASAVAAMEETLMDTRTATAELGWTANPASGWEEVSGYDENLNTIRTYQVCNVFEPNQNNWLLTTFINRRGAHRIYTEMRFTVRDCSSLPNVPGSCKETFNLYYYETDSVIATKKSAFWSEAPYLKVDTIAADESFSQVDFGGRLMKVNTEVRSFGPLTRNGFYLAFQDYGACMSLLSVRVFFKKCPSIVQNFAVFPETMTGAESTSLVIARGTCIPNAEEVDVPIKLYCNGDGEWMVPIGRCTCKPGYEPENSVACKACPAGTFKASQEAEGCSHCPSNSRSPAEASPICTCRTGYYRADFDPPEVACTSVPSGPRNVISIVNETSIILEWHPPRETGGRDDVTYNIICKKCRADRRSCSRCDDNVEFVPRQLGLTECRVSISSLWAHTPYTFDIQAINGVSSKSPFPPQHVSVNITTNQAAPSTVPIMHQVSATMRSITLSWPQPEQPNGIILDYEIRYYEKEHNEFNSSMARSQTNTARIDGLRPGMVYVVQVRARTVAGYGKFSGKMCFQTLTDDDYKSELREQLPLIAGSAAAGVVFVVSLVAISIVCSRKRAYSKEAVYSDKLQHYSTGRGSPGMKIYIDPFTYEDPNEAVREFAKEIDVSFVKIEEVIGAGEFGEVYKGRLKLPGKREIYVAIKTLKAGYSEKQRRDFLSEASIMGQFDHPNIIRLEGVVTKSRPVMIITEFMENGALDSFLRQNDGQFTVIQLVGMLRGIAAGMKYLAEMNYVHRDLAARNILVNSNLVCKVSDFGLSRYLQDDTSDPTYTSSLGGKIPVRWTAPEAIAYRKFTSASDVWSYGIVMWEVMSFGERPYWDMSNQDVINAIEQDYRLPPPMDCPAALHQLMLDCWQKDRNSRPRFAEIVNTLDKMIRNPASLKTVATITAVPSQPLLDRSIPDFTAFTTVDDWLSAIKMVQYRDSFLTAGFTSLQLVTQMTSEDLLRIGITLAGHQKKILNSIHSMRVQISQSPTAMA
Hck, sequence (P08631 whole entry, looked up): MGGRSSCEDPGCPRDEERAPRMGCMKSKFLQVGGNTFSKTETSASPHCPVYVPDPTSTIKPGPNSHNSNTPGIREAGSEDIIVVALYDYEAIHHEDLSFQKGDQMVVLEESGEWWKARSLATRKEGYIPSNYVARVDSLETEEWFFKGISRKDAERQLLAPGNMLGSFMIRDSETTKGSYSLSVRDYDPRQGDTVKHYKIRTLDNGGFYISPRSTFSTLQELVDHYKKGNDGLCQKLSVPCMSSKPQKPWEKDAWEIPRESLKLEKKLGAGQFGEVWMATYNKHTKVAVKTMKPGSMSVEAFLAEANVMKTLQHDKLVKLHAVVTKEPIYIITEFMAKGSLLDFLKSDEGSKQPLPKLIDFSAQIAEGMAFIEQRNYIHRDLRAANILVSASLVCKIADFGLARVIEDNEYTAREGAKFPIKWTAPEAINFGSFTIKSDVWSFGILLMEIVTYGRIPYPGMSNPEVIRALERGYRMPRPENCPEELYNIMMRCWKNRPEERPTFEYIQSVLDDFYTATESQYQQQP
MERTK, sequence (Q12866 whole entry, looked up): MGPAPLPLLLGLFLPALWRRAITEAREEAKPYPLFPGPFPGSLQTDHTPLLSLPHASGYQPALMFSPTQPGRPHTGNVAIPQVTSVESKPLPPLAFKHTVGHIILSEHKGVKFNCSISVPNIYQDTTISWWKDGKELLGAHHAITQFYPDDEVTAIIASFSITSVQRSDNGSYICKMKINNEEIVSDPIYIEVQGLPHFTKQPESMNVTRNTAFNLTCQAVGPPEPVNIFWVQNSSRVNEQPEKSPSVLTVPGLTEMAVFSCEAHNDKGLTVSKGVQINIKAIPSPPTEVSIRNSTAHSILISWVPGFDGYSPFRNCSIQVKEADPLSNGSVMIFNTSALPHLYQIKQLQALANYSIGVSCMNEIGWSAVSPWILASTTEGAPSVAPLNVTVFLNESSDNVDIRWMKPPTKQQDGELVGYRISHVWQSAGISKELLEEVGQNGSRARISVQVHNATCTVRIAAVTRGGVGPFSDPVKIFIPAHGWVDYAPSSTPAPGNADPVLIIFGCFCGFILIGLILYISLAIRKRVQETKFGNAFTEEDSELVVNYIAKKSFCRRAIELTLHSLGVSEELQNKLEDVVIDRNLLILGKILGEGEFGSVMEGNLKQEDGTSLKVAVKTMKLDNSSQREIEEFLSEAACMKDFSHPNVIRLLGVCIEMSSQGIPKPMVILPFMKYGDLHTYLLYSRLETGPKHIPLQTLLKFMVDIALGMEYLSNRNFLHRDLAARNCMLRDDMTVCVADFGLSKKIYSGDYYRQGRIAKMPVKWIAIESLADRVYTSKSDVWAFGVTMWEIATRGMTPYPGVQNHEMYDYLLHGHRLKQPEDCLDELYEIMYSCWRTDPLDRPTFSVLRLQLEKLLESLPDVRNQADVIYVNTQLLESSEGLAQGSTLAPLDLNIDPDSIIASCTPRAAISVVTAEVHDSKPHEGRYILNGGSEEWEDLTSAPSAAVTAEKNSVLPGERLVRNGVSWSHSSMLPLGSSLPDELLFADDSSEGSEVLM

| Sequence | SH2 binding enrichment (Grb2 SH2) | SH2 binding enrichment (SHP2-C SH2) | SH2 binding enrichment (c-Src SH2) | phosphorylation enrichment (AncSZ) | phosphorylation enrichment (EPHB1) | phosphorylation enrichment (EPHB2) | phosphorylation enrichment (FGFR1) | phosphorylation enrichment (FGFR3) | phosphorylation enrichment (Fer (mouse)) | phosphorylation enrichment (Fes) | phosphorylation enrichment (Fyn) | phosphorylation enrichment (Hck) | phosphorylation enrichment (Jak2) | phosphorylation enrichment (MERTK) | phosphorylation enrichment (c-Abl (mouse)) | phosphorylation enrichment (c-Src) |
| --- | --- | --- | --- | --- | --- | --- | --- | --- | --- | --- | --- | --- | --- | --- | --- | --- |
| YKGKNYKPLDL [RPL35_Y78_K77N] | 0.9 | 0.846 | 0.516 | 0.423 | 0.277 | 0.246 | 0.32 | 0.362 | 0.267 | 0.697 | 0.334 | 0.276 | 0.59 | 0.333 | 0.575 | 0.391 |
| TPRNTYKMTSV [MKI67_Y849_L854V] | 0.844 | 0.525 | 0.452 | 0.657 | 0.518 | 0.468 | 0.482 | 0.474 | 0.343 | 0.558 | 0.425 | 0.458 | 0.513 | 0.445 | 0.584 | 0.502 |
| TRSYKYLLLSM [NF1_Y491] | 1.64 | 2.46 | 1.15 | 0.833 | 0.754 | 0.69 | 0.433 | 0.624 | 0.434 | 0.832 | 0.477 | 0.422 | 0.887 | 0.485 | 0.852 | 0.494 |
| TAALWYIFLHT [ENG_Y612_S615L_YF] | 0.98 | 1.09 | 0.593 | 1.32 | 0.832 | 0.939 | 0.845 | 1.2 | 0.577 | 1.86 | 0.555 | 0.689 | 1.48 | 0.555 | 1.24 | 0.508 |
| FMMMRYSQNIR [SDAD1_Y656_V660I] | 1.35 | 1.36 | 0.883 | 1.17 | 0.77 | 1.23 | 0.663 | 0.795 | 0.509 | 1.3 | 0.513 | 0.53 | 0.955 | 0.414 | 0.61 | 0.397 |
| EKKDLYKAGEQ [CFH_Y1008_V1007L] | 0.794 | 0.655 | 0.46 | 0.705 | 0.382 | 0.432 | 0.356 | 0.647 | 0.431 | 0.799 | 0.43 | 0.374 | 0.606 | 0.374 | 0.62 | 0.369 |
| RLLVVYTWTQR [HBB_Y36_P37T] | 1.68 | 1.55 | 1.01 | 1.81 | 0.656 | 1.12 | 0.661 | 0.941 | 0.842 | 2.12 | 0.739 | 0.915 | 1.08 | 0.694 | 0.862 | 0.509 |
| TNITEYCRDLI [RECQL_Y492_K487T] | 0.759 | 0.6 | 0.537 | 1.01 | 0.614 | 0.617 | 0.498 | 0.743 | 0.491 | 1.35 | 0.497 | 0.569 | 1.25 | 0.415 | 0.81 | 0.56 |
| LSQDVYEEDSF [RET_Y900_R897Q_YF] | 0.83 | 0.687 | 0.671 | 2.12 | 1.19 | 0.962 | 0.991 | 1.44 | 0.978 | 2.43 | 0.882 | 0.945 | 2.56 | 1.26 | 1.58 | 0.852 |

Continued, in another order:

| SH2 binding enrichment (Grb2 SH2) | SH2 binding enrichment (SHP2-C SH2) | SH2 binding enrichment (c-Src SH2) | Sequence | phosphorylation enrichment (AncSZ) | phosphorylation enrichment (EPHB1) | phosphorylation enrichment (EPHB2) | phosphorylation enrichment (FGFR1) | phosphorylation enrichment (FGFR3) | phosphorylation enrichment (Fer (mouse)) | phosphorylation enrichment (Fes) | phosphorylation enrichment (Fyn) | phosphorylation enrichment (Hck) | phosphorylation enrichment (Jak2) | phosphorylation enrichment (MERTK) | phosphorylation enrichment (c-Abl (mouse)) | phosphorylation enrichment (c-Src) |
| --- | --- | --- | --- | --- | --- | --- | --- | --- | --- | --- | --- | --- | --- | --- | --- | --- |
| 0.942 | 0.776 | 0.601 | SLLPDYEDEEE [ZNF830_Y159] | 1.47 | 0.744 | 0.829 | 0.583 | 0.782 | 0.64 | 1.28 | 0.646 | 0.673 | 1.01 | 0.631 | 0.647 | 0.556 |
| 0.882 | 0.8 | 0.387 | IGEGTYGVLFK [CDK2_Y15_V18L_YF] | 0.85 | 1.1 | 1.73 | 0.38 | 0.606 | 0.673 | 0.997 | 8.03 | 6.57 | 0.702 | 1.48 | 0.708 | 5.31 |
| 0.864 | 0.755 | 0.508 | NEKNIYRVPLM [BMPR2_Y247] | 0.622 | 0.377 | 0.357 | 0.446 | 0.501 | 0.439 | 0.708 | 1.96 | 1.16 | 0.671 | 0.609 | 31.2 | 0.877 |
| 1.48 | 0.725 | 0.66 | QDGFSYPSRQM [LDLR_Y847_YF] | 0.378 | 0.218 | 0.479 | 0.453 | 0.325 | 0.409 | 0.53 | 0.434 | 0.522 | 0.454 | 0.415 | 0.621 | 0.398 |
| 0.929 | 1.94 | 24.5 | ETVHRYVELLD [AP1S3_Y87_I83T] | 0.905 | 0.538 | 0.654 | 0.591 | 0.746 | 0.435 | 0.997 | 0.478 | 0.52 | 0.752 | 0.415 | 0.613 | 0.461 |
| 0.913 | 0.754 | 0.546 | SKNSKCNAEST [PSEN1_Y315_Y315C] | 0.546 | 0.48 | 0.463 | 0.769 | 0.486 | 0.508 | 0.768 | 0.379 | 0.499 | 0.51 | 0.368 | 0.566 | 0.383 |
| 0.915 | 0.998 | 0.515 | ANYTEYVATRW [CDKL5_Y171] | 1.04 | 8.12 | 9.4 | 2.97 | 2.27 | 0.601 | 0.96 | 0.945 | 0.886 | 0.737 | 1.05 | 0.948 | 1.11 |
| 0.606 | 0.342 | 0.32 | ARVANYQRDGP [CAT_Y386] | 0.785 | 0.564 | 0.406 | 0.524 | 0.526 | 0.394 | 0.607 | 0.436 | 0.386 | 0.486 | 0.574 | 0.496 | 0.545 |
